Values of other authors as cited in patent publication US20230233498A1, “COMPOSITIONS AND METHODS FOR THE TREATMENT OF COVID-19” (PROTHIONE, LLC, priority 2020, published 2023).

Assays:
[1] = tested on: EBOV replicon system; conditions: transient expression
[2] = tested on: Ebola virus (EBOV); conditions: cells expressing NZAP-Zeo or full-length ZAP

B1: ZAP: zinc finger antiviral protein (protein, UniProt Q7Z2W4 2-902, looked up)
Zinc finger CCCH-type …: ADPEVCCFITKILCAHGGRMALDALLQEIALSEPQLCEVLQVAGPDRFVVLETGGEAGITRSVVATTRARVCRRKYCQRPCDNLHLCKLNLLGRCNYSQSERNLCKYSHEVLSEENFKVLKNHELSGLNKEELAVLLLQSDPFFMPEICKSYKGEGRQQICNQQPPCSRLHICDHFTRGNCRFPNCLRSHNLMDRKVLAIMREHGLNPDVVQNIQDICNSKHMQKNPPGPRAPSSHRRNMAYRARSKSRDRFFQGSQEFLASASASAERSCTPSPDQISHRASLEDAPVDDLTRKFTYLGSQDRARPPSGSSKATDLGGTSQAGTSQRFLENGSQEDLLHGNPGSTYLASNSTSAPNWKSLTSWTNDQGARRKTVFSPTLPAARSSLGSLQTPEAVTTRKGTGLLSSDYRIINGKSGTQDIQPGPLFNNNADGVATDITSTRSLNYKSTSSGHREISSPRIQDAGPASRDVQATGRIADDADPRVALVNDSLSDVTSTTSSRVDDHDSEEICLDHLCKGCPLNGSCSKVHFHLPYRWQMLIGKTWTDFEHMETIEKGYCNPGIHLCSVGSYTINFRVMSCDSFPIRRLSTPSSVTKPANSVFTTKWIWYWKNESGTWIQYGEEKDKRKNSNVDSSYLESLYQSCPRGVVPFQAGSRNYELSFQGMIQTNIASKTQKDVIRRPTFVPQWYVQQMKRGPDHQPAKTSSVSLTATFRPQEDFCFLSSKKYKLSEIHHLHPEYVRVSEHFKASMKNFKIEKIKKIENSELLDKFTWKKSQMKEEGKLLFYATSRAYVESICSNNFDSFLHETHENKYGKGIYFAKDAIYSHKNCPYDAKNVVMFVAQVLVGKFTEGNITYTSPPPQFDSCVDTRSNPSVFVIFQKDQVYPQYVIEYTEDKACVIS
decreased activity of an EBOV replicon system [1]: up to 95%
EBOV inhibited [2]: up to 4 log units
